This is an account of results in the supplement of paper PMC5998384.

The subject of series [1] is HeLa Kyoto. Briefly: solubility change mitosis vs G1/S (difference of NP-40 vs SDS log2 ratios) (log2 ratio difference); higher = more soluble in mitosis.
Series [2] deals with HeLa Kyoto. Briefly: solubility in G1/S (NP-40 vs SDS abundance) (log2 ratio); higher = more soluble. To be noted: cell cycle stage: G1/S.
Series [3] has as its system HeLa Kyoto. Briefly: melting temperature (median over replicates), in situ; higher = more thermally stable.
Series [4] relates to HeLa Kyoto. Briefly: thermal stability score vs G1/S (z-score of summed log2 fold changes over temperatures); higher = more thermally stable than in G1/S.
The mark [5] stands for this setting: cell cycle stage: early G1 (4.5 h after nocodazole release).
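Wherever melting temperature (median over replicates), in situ is given: HeLa Kyoto cells synchronized by double thymidine or nocodazole block, proteins quantified by TMT10plex mass spectrometry, three independent biological replicates.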
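Wherever solubility change mitosis vs G1/S (difference of NP-40 vs SDS log2 ratios) is given: synchronized HeLa Kyoto cells (double thymidine block for G1/S, nocodazole release for mitosis), protein amounts in NP-40 versus SDS lysates quantified by mass spectrometry, three biological replicates.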
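Wherever solubility in G1/S (NP-40 vs SDS abundance) is given: HeLa Kyoto cells arrested at G1/S by double thymidine block, proteins quantified by TMT10plex mass spectrometry in mild NP-40 versus SDS extracts, three biological replicates.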
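Wherever thermal stability score vs G1/S (z-score of summed log2 fold changes over temperatures) is given: synchronized HeLa Kyoto cells, proteins quantified by TMT10plex mass spectrometry, three biological replicates, mitosis taken 0.5 h after nocodazole release, G1/S directly after double thymidine block.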

Regarding “MEKARRGGDGVPRGPVLHIVVVGFHHKKGCQVEFSYPPLIPGDGHDSHTLPEEWKYLPFLALPDGAHNYQEDTVFFHLPPRNGNGATVFGISCYRQIEAKALKVRQADITRETVQKSVCVLSKLPLYGLLQAKLQLITHAYFEEKDFSQISILKELYEHMNSSLGGASLEGSQVYLGLSPRDLVLHFRHKVLILFKLILLEKKVLFYISPVNKLVGALMTVLSLFPGMIEHGLSDCSQYRPRKSMSEDGGLQESNPCADDFVSASTADVSHTNLGTIRKVMAGNHGEDAAMKTEEPLFQVEDSSKGQEPNDTNQYLKPPSRPSPDSSESDWETLDPSVLEDPNLKEREQLGSDQTNLFPKDSVPSESLPITVQPQANTGQVVLIPGLISGLEEDQYGMPLAIFTKGYLCLPYMALQQHHLLSDVTVRGFVAGATNILFRQQKHLSDAIVEVEEALIQIHDPELRKLLNPTTADLRFADYLVRHVTENRDDVFLDGTGWEGGDEWIRAQFAVYIHALLAATLQLDNEKILSDYGTTFVTAWKNTHNYRVWNSNKHPALAEINPNHPFQGQYSVSDMKLRFSHSVQNSERGKKIGNVMVTTSRNVVQTGKAVGQSVGGAFSSAKTAMSSWLSTFTTSTSQSLTEPPDEKP [AVL9]”, the “solubility change mitosis (log2)” value in the series with HeLa Kyoto [1] is -0.155. The “solubility in G1/S (log2)” value with HeLa Kyoto [2] was 0.0785. The results for the melting temperature in the series on HeLa Kyoto [3] (cell cycle stage: G1/S) and in the series with HeLa Kyoto [3] (cell cycle stage: mitosis) were 54.3 °C and 54.1 °C, respectively. The thermal stability score is 0.365 in the series on HeLa Kyoto [4] (setting [5]) and 0.676 in the series on HeLa Kyoto [4] (cell cycle stage: mitosis).
As for “MEKGLTLPQDCRDFVHSLKMRSKYALFLVFVVIVFVFIEKENKIISRVSDKLKQIPQALADANSTDPALILAENASLLSLSELDSAFSQLQSRLRNLSLQLGVEPAMEAAGEEEEEQRKEEEPPRPAVAGPRRHVLLMATTRTGSSFVGEFFNQQGNIFYLFEPLWHIERTVSFEPGGANAAGSALVYRDVLKQLFLCDLYVLEHFITPLPEDHLTQFMFRRGSSRSLCEDPVCTPFVKKVFEKYHCKNRRCGPLNVTLAAEACRRKEHMALKAVRIRQLEFLQPLAEDPRLDLRVIQLVRDPRAVLASRMVAFAGKYKTWKKWLDDEGQDGLREEEVQRLRGNCESIRLSAELGLRQPAWLRGRYMLVRYEDVARGPLQKAREMYRFAGIPLTPQVEDWIQKNTQAAHDGSGIYSTQKNSSEQFEKWRFSMPFKLAQVVQAACGPAMRLFGYKLARDAAALTNRSVSLLEERGTFWVT [CHST3]”, the “solubility change mitosis (log2)” value with HeLa Kyoto [1] was -0.0403. In addition, the “solubility in G1/S (log2)” value in the series on HeLa Kyoto [2] turned out to be 0.15. For the same sequence, the values for the melting temperature in the series on HeLa Kyoto [3] (cell cycle stage: G1/S) and in the series on HeLa Kyoto [3] (cell cycle stage: mitosis) were 55.3 °C and 53.5 °C, respectively. In addition, the thermal stability score in the series with HeLa Kyoto [4] (setting [5]) is -1.54; in the series with HeLa Kyoto [4] (cell cycle stage: mitosis), -0.213.
Turning to “MEKRLGVKPNPASWILSGYYWQTSAKWLRSLYLFYTCFCFSVLWLSTDASESRCQQGKTQFGVGLRSGGENHLWLLEGTPSLQSCWAACCQDSACHVFWWLEGMCIQADCSRPQSCRAFRTHSSNSMLVFLKKFQTADDLGFLPEDDVPHLLGLGWNWASWRQSPPRAALRPAVSSSDQQSLIRKLQKRGSPSDVVTPIVTQHSKVNDSNELGGLTTSGSAEVHKAITISSPLTTDLTAELSGGPKNVSVQPEISEGLATTPSTQQVKSSEKTQIAVPQPVAPSYSYATPTPQASFQSTSAPYPVIKELVVSAGESVQITLPKNEVQLNAYVLQEPPKGETYTYDWQLITHPRDYSGEMEGKHSQILKLSKLTPGLYEFKVIVEGQNAHGEGYVNVTVKPEPRKNRPPIAIVSPQFQEISLPTTSTVIDGSQSTDDDKIVQYHWEELKGPLREEKISEDTAILKLSKLVPGNYTFSLTVVDSDGATNSTTANLTVNKAVDYPPVANAGPNQVITLPQNSITLFGNQSTDDHGITSYEWSLSPSSKGKVVEMQGVRTPTLQLSAMQEGDYTYQLTVTDTIGQQATAQVTVIVQPENNKPPQADAGPDKELTLPVDSTTLDGSKSSDDQKIISYLWEKTQGPDGVQLENANSSVATVTGLQVGTYVFTLTVKDERNLQSQSSVNVIVKEEINKPPIAKITGNVVITLPTSTAELDGSKSSDDKGIVSYLWTRDEGSPAAGEVLNHSDHHPILFLSNLVEGTYTFHLKVTDAKGESDTDRTTVEVKPDPRKNNLVEIILDINVSQLTERLKGMFIRQIGVLLGVLDSDIIVQKIQPYTEQSTKMVFFVQNEPPHQIFKGHEVAAMLKSELRKQKADFLIFRALEVNTVTCQLNCSDHGHCDSFTKRCICDPFWMENFIKVQLRDGDSNCEWSVLYVIIATFVIVVALGILSWTVICCCKRQKGKPKRKSKYKILDATDQESLELKPTSRAGIKQKGLLLSSSLMHSESELDSDDAIFTWPDREKGKLLHGQNGSVPNGQTPLKARSPREEIL [KIAA0319L]”, the “solubility change mitosis (log2)” value in the series with HeLa Kyoto [1] came to 0.0841. The “solubility in G1/S (log2)” value in the series with HeLa Kyoto [2] turned out to be 0.0342. The values for the melting temperature with HeLa Kyoto [3] (cell cycle stage: G1/S) and with HeLa Kyoto [3] (cell cycle stage: mitosis) were 58.5 °C and 56.2 °C, respectively. For the same sequence, the figures for the thermal stability score in the series with HeLa Kyoto [4] (setting [5]) and with HeLa Kyoto [4] (cell cycle stage: mitosis) were -3.99 and -5.23, respectively.
Turning to “MELALRRSPVPRWLLLLPLLLGLNAGAVIDWPTEEGKEVWDYVTVRKDAYMFWWLYYATNSCKNFSELPLVMWLQGGPGGSSTGFGNFEEIGPLDSDLKPRKTTWLQAASLLFVDNPVGTGFSYVNGSGAYAKDLAMVASDMMVLLKTFFSCHKEFQTVPFYIFSESYGGKMAAGIGLELYKAIQRGTIKCNFAGVALGDSWISPVDSVLSWGPYLYSMSLLEDKGLAEVSKVAEQVLNAVNKGLYREATELWGKAEMIIEQNTDGVNFYNILTKSTPTSTMESSLEFTQSHLVCLCQRHVRHLQRDALSQLMNGPIRKKLKIIPEDQSWGGQATNVFVNMEEDFMKPVISIVDELLEAGINVTVYNGQLDLIVDTMGQEAWVRKLKWPELPKFSQLKWKALYSDPKSLETSAFVKSYKNLAFYWILKAGHMVPSDQGDMALKMMRLVTQQE [SCPEP1]”, in the series on HeLa Kyoto [1], the “solubility change mitosis (log2)” value was found to be 0.202. In addition, in the series with HeLa Kyoto [2], the “solubility in G1/S (log2)” value is 0.402. For the same sequence, the melting temperature was found to be 56.9 °C in the series on HeLa Kyoto [3] (cell cycle stage: G1/S) and 55.6 °C in the series on HeLa Kyoto [3] (cell cycle stage: mitosis). For the same sequence, the thermal stability score in the series with HeLa Kyoto [4] (setting [5]) is -2.33; in the series on HeLa Kyoto [4] (cell cycle stage: mitosis), -0.14.
